In the emibetuzumab library of Makowski et al. (2022):

B1: VH:VL chains; a variant is named by its letters at X, in order (parent)
chain 1: QVQLVQSGAEVKKPGASVKVSCKASGYTFTDYXMHWVRQAPGQGLEWMGXVNPNXXXTTYNQKFEGRVTMTTDTSTSTAYMELRSLRSDDTAVYYCARXNXLDXWGQGTTVTVSS
chain 2: DIQMTQSPSSLSASVGDRVTITCSVSSSVSSIYLHWYQQKPGKAPKLLIYSTSNLASGVPSRFSGSGSGTDFTLTISSLQPEDFATYYCQVYSGYPLTFGGGTKVEIK

Variants of: B1
Test: yeast display scFab, FACS + sequencing
Outline: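 For the non-specific binding call, a heavy-chain CDR mutant scFab library on the yeast surface was FACS-sorted and samples from two replicates were deep sequenced. Cells were labelled with anti-Myc and either biotinylated ovalbumin (260 μg/mL in PBSB, 3 h, room temperature) or soluble membrane proteins (130 μg/mL, 20 min on ice), with gates on the top 25% and bottom 10% of binders. With membrane protein and ovalbumin samples pooled, a sequence in ≥3 of 4 positive samples and no negatives was scored positive, and the converse rule scored negatives.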

| Variant | non-specific binding call |
| --- | --- |
| ARRRGAWY | binds |
| YRTGGSSV | binds |
| VRTGDSAY | no binding |
| SRTGSDVD | no binding |
| YRRRGSWA | binds |
| YRRRGSWS | binds |
| YRRRGSWV | binds |
| YRRRGSWD | binds |
| VRTGDDGV | no binding |
| VRTEDASF | no binding |
| YRTEDVGA | binds |
| YRRRGYSS | binds |
| YRRRGYSD | binds |
| ARRRGAAA | binds |
| YRRRGSVD | binds |
| YRRRGSVF | binds |
| YRRRGSVA | binds |
| YRRRGSVS | binds |
| YRRRGSVV | binds |
| YRTADDWV | binds |
| FRRRGAWY | binds |
| FRRRGAWA | binds |
| YRRGTSVD | binds |
| YRRRSSSS | binds |
| VRTEDALD | no binding |

| Variant | non-specific binding call |
| --- | --- |
| VRTEDALV | no binding |
| YRRRGDGV | binds |
| YRRRGDGD | binds |
| YRRRGDGY | binds |
| FRTGDDGA | no binding |
| YRRRGYGD | binds |
| VRTEDSWS | no binding |
| VRTEDSWA | no binding |
| YRRRGSLA | binds |
| YRRRGSLS | binds |
| YRRRGSLV | binds |
| YRRRGSLD | binds |
| YRRRGSLY | binds |
| YRRRGSLF | binds |
| YRTAGAGD | binds |
| YRTAGAGV | binds |
| VRRTSAAS | binds |
| YRRRTAAV | binds |
| DRRKAFSA | binds |
| VRTGAVGD | binds |
| SRRRGALD | binds |
| FRTGDDAA | no binding |
| FRTGDDAV | no binding |
| YRRRSSLA | binds |
| VRRRGSGD | binds |

| Variant | non-specific binding call |
| --- | --- |
| YRRRGDAD | binds |
| YRRRGDAA | binds |
| YRRRGAVF | binds |
| YRRRGAVA | binds |
| YRRRGAVY | binds |
| YRRRGAVD | binds |
| YRRKGALV | binds |
| VRRRGSLF | binds |
| YRRRGALF | binds |
| YRRRGALY | binds |
| YRRRGALS | binds |
| YRRRGALA | binds |
| VRTKADAV | no binding |
| FRRRGSSD | binds |
| VRTGDSLD | no binding |
| YRRRGASA | binds |
| YRRRGASD | binds |
| YRRRGASF | binds |
| YRRRGASS | binds |
| YRRRGASV | binds |
| YRTAGSSD | binds |
| YRRRDSSA | binds |
| YRRRGYLV | binds |
| FRTGDSAS | no binding |
| FRRRGSAD | binds |

| Variant | non-specific binding call |
| --- | --- |
| FRRRGSAA | binds |
| VRTEDSLV | no binding |
| VRTEDSLD | no binding |
| VRTEDDWF | no binding |
| VRTEDDWV | no binding |
| VRTEDDWS | no binding |
| VRTEDDWY | no binding |
| ARRRGSAA | binds |
| VRTEDSSV | no binding |
| YRTGGSGD | binds |
| YRTGGSGA | binds |
| YRRRGDVV | binds |
| YRRRGDVD | binds |
| YRRRGDVY | binds |
| VRRRGALD | binds |
| VRRRGALA | binds |
| FRTGDSVD | no binding |
| YRRRGVAD | binds |
| YRRRGVAA | binds |
| YRTADVGV | binds |
| YRRKDALA | binds |
| VRTKDFSY | no binding |
| VRTGGAAA | binds |
| FRTGGAVA | binds |
| YRTGDSSA | no binding |

| Variant | non-specific binding call |
| --- | --- |
| YRRRGYWA | binds |
| VRTADVGV | binds |
| YRTGGSLD | binds |
| YRRRSSVD | binds |
| YRRKGAAY | binds |
| FRRRGDWY | binds |
| YRRRGSGF | binds |
| YRRRGSGS | binds |
| YRRRGSGA | binds |
| YRRRGSGV | binds |
| YRRRGSGY | binds |
| VRTEDSGD | no binding |
| YRRRGAWD | binds |
| YRRRGAWF | binds |
| YRRRGAWA | binds |
| YRRRGAWV | binds |
| YRRRGAWS | binds |
| VRTEDAWV | no binding |
| VRTEDAWA | no binding |
| YRRKGDAD | binds |
| FRTGDDSF | no binding |
| FRRTDFVA | binds |
| VRRRGSAF | binds |
| FRTGDSLV | no binding |
| YRTGDDVF | no binding |

| Variant | non-specific binding call |
| --- | --- |
| YRTAGSGV | binds |
| YRTAGSGD | binds |
| FRRTDFVA chain 1 C22Y | binds |
| YRRRSAVA | binds |
| VRTEDFGV | no binding |
| FRTKAAVY | binds |
| YRTGASSD | binds |
| DRTGDDVY | no binding |
| DRTGDDVA | no binding |
| YRTKASLD | binds |
| VRTEDDVF | no binding |
| VRTEDDVY | no binding |
| VRTEDDVD | no binding |
| VRTEDDVA | no binding |
| YRRKGSVD | binds |
| ARRRGSGA | binds |
| FRTADVGV | binds |
| YRRRGVGY | binds |
| YRRRGVGA | binds |
| YRRRGVGV | binds |
| YRRRGVGS | binds |
| YRRRGVGD | binds |
| FRTGDAGA | no binding |
| FRRRGALD | binds |
| YRRRGYAA | binds |

| Variant | non-specific binding call |
| --- | --- |
| FRTGDDLV | no binding |
| YRRRGDLD | binds |
| FRTGDSWD | no binding |
| YRRRGAAA | binds |
| YRRRGAAY | binds |
| YRRRGAAD | binds |
| YRRRGAAS | binds |
| YRRRGAAF | binds |
| YRTGAALS | binds |
| VRRRGAVV | binds |
| YRTEGAVA | binds |
| VRRKDFLA | binds |
| FRTEGSGY | binds |
| SRRRGSAA | binds |
| YRRRGFAV | binds |
| YRRRGFAA | binds |
| YRRKGASV | binds |
| VRRRSSLA | binds |
| VRTADDGA | no binding |
| FRRRGAVA | binds |
| FRRRGAVD | binds |
| YRRRGVVV | binds |
| YRRRGAGY | binds |
| YRRRGAGD | binds |
| YRRRGAGA | binds |

| Variant | non-specific binding call |
| --- | --- |
| YRRRGAGV | binds |
| YRRRGAGF | binds |
| YRTGAASD | binds |
| YRTGAAAD | binds |
| YRTGTAGF | binds |
| YRRRGFGA | binds |
| YRRRGFGD | binds |
| YRRRGFGS | binds |
| YRRRGFGV | binds |
| YRRRGFGY | binds |
| FRTGDAWV | no binding |
| VRTEDDLV | no binding |
| VRRRGAAD | binds |
| FRRRGSLY | binds |
| FRRRGSLV | binds |
| YRRRGVWA | binds |
| YRRRGDWY | binds |
| YRRRGDWD | binds |
| YRRRGDWA | binds |
| FRTGGSAD | binds |
| YRRKGSGY | binds |
| YRRKGSGA | binds |
| YRTGAAGV | binds |
| YRRRGYVA | binds |
| YRRRGYVV | binds |

| Variant | non-specific binding call |
| --- | --- |
| YRRRGYVD | binds |
| YRRRGYVF | binds |
| YRRKGAGD | binds |
| SRRRGAWY | binds |
| VRRKSSSV | binds |
| DRTGDSSS | no binding |
| YRTKAAVD | binds |
| YRRGSYVY | binds |
| YRRRGSSS | binds |
| YRRRGSSF | binds |
| YRRRGSSA | binds |
| YRRRGSSD | binds |
| VRRRGSWV | binds |
| FRRRGSGD | binds |
| VRRRGAGV | binds |
| VRRRGAGD | binds |
| FRRRDAAF | binds |
| ARRTDVAD | binds |
| YRRKGSSA | binds |
| YRRKGSSS | binds |
| FRRRGAAA | binds |
| FRRRGAAD | binds |
| DRRRGSGA | binds |
| VRTAASGD | binds |
| YRTGGAWD | binds |

| Variant | non-specific binding call |
| --- | --- |
| VRTEDDAS | no binding |
| YRRRGVSA | binds |
| VRTKAVAY | binds |
| YRRGSVGV | binds |
| YRRRGSAF | binds |
| YRRRGSAD | binds |
| YRRRGSAS | binds |
| YRTGDSAA | binds |
| YRTGDSGD | no binding |
| FRTKDDVY chain 1 E46K | binds |
| YRTGGAGD | no binding |
| FRRKDDWA | binds |
| YRRRSAGA | binds |
| YRRRGFVA | binds |
| YRRRGFVD | binds |
| YRRRGFVV | binds |
| DRRRGALD | binds |
| FRTEGSAD | binds |
| VRRTDFVA | binds |
| YRTAGAAD | binds |
| YRRRGFWY | binds |
| FRTGDAVS | no binding |
| FRTGDAVF | no binding |
| FRTGDDWV | no binding |
| FRTGSAWF | binds |
